The text below walks through data of the RNAGym collection of RNA variant scans (doi:10.1073/pnas.2313332121).

B1: TPR t1 (parent)
chain: GACCAAUCUGCCCUCAGAGCUCGAGAACAUCUUCGGAUGCAGAGGAGGCAGGCUUCGGUGGCGCGAUAGCGCCAACGUCCUCAACCUCCAAUGCAUCCCACCACAUGAUGAUGCCUGAAGAGCCUUGGUUUUUUG

In this data set the parent is B1. Nature of the data set: polymerase ribozyme fitness, log enrichment relative to wild type (log ratio); higher = more active; in vitro selection for triplet polymerase activity. Summed up: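 Each subunit of a heterodimeric triplet polymerase ribozyme was represented by a PCR-built, transcribed mutant library that underwent triplicate single-round in vitro selection with frozen incubation at −7 °C. Extended constructs were recovered by gel excision, streptavidin-bead capture and RT-PCR, and Illumina sequencing of input and output libraries kept genotypes with ≥10 input reads and ≥1 read per output. Fitness is the logarithm of genotype enrichment relative to wild-type enrichment, from inverse-variance-weighted replicate averages, with a logarithm base of 2.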
For the variant GACCAAUCUGCCCUCAGAGCUCGAGAACAUCUUCCGAUGCAGAGGAGGCAGGCUUCGGUGGCGCGAUAGCGCCAAUUUCCUCAACCUCCAAUGCAUCCCACCACAUGAUGAUGCCUGAAGAGUCUUGGUUUUUUG [G35C C76U G77U C123U], the “polymerase ribozyme fitness (log ratio)” value was -6.87. As for GACCAAUCUGGCCUCAGAGCUCGAGAACAUCUUCGGAUGCAGAGGAGGCAGGCUUCGGUGGCGCGAUAGCGCCAACGUCCUCAACCUCCAAUGUAUCCCACCAGAUGAUGAUACCUGAAGAGCCUUGGUUUUUUG [C11G C94U C104G G113A], the figure is -5.51. Under GACCAAUCUGCCCUCAGAGCUCGAGAACAUCUUCGGAUGCAGAGGAGGCAGGCUUCGGGGGCGCGAUAGCGCCAACGUCCUCAACCUCCAAUGCAUCCCACCACAUGAUGAGACCUGAAUAGCCUUGGUUUUUUG [U59G U112G G113A G120U] stands -4.31. Regarding GACCAAUCUGCCCUCAGAGCUCGAGAACAUCUUCGGAUGCAGAGGAGGCAGGCUUCGAUGGCGCGAUAGCGGCAACGUCCUCAACCUCCAAUGCAUCCCACCACAUGAUGAUGCCUGAAGAGCCUUAGUUUUUUG [G58A C72G G127A], the “polymerase ribozyme fitness (log ratio)” value was -1.35. Under GACCAAUCUGCCCUCAGAGCUCGAGAACAUCUUCGGAUGCAGAGGAGGCAGGCUUCGGUGGCACGAUAGCGCCAACGUCCUCAACCUCCAAUGCAUCCCACCACAUGAUGAUGCCUGAAGAGCCUAGGUUUUUUG [G63A U126A] stands -2.47. GACCAAUCUGCCCUCAGAGCUCGAGAACAUCUUCGGAUGCAGAGGAGGCUGGCUUCGGUGCCGCGAUAGCGCCAACGUGCUCAACCUCCAAUGCAUCCCACCACACGAUGAUGCUUGAAGAGCAUUGGUUUUUUG [A50U G61C C79G U106C C115U C124A]: the “polymerase ribozyme fitness (log ratio)” value was -5.24. As for GACCAAUCUGCCCUCAGAGCUCGAGAACAUCUUUGGAUGCAGAGGAGGCAGGCUUCGGUGGCGCGAUAGCGCCAACGUCCUCAACCUCCAAUGCACCCCACCACAUGAUGAUGCCUGAAGAGCCUUGGUUUUUUG [C34U U96C], the figure is -5.22; as for GACCAAUCUGCCCUCUGAGCUCGAGAACAUCUUCGGAUGCAGAGGAGGCAGGCUUCGGUGGCGCGAUAGCGACAACGUCCUCAACCUCCAAUGCAUCCCACCACAUGAUGAUGCCUGAAGAGCCUUGGUUCUUUG [A16U C72A U131C], -1.73; as for GACCAAUCUGCCCUCAGAGCUCGAGAACAUCUUCGUAUGCAGAGGAGGCAGGCUUCGGUGGCGCGAUAGCACCAACGUCCUCAACCUCCAAUGCAUCCCACCACAUGAUGAUGCCUGAAGAGCCUUGGUUUUUUG [G36U G71A], -1.86. Regarding GACCAAUCUGCCCUCAGAGCUCGAGAACAUCUUCGGAUGCAGAGGAGGCAGGCUUCGGUGGCGCGAUAGCGCCAACGUCCUCAACCUCCAAUUCAUCCCACCACAUGAUGAUCCCUGAAGAGCCAUGGUUUUUUG [G93U G113C U125A], the “polymerase ribozyme fitness (log ratio)” value was -3.4. Consider GACCAAUCUGCCCUCAGAGCUCGGGAACAUCUUCGGAUGCAGAGGAGGCAGGCUUCGGUGGCGCGAUAGAGCCAACGUCCUCAACCUCCAAUGCAUCCCACCACAUGAUAUUGCCUGAAGAGCCUUGGUUUUUUG [A24G C70A G110A A111U], for which the “polymerase ribozyme fitness (log ratio)” value was -5.11.

In the case of GACCAAUCUGCCAUCAGAGCUCGAGAACAUCUUCGGAUGCAGAGGAGGCAGGCUUCGGUGGCGCGAUAGCGCCAACGUCCUCAACCUCCAAUGCGUCCCACCACAUGAAGAUGCCUGAAGAGCCUUGGUUUUUUG [C13A A95G U109A], the “polymerase ribozyme fitness (log ratio)” value is -6.28. For the variant GACCAAUCUGCCCUCAGAGCUCGAGAACAUCUUCGGAUGCAGAGGAGGCAGGCUUCGGUGGCGCGAUAUCGCCAACGUCCUCAACCUCCAAUGCAUCCAACCACAUGAUGAUGCCUGAAGAGCCUUGGUGUUUUG [G69U C99A U130G], the “polymerase ribozyme fitness (log ratio)” value was -3.92. Under GACCAAUCUGCCCUCAGAGCUCGAGAACAUCUUCGGAUGCAGAGGAGGCAGGCUUCGGUGGCGCGAUAGCGCCAACUUCCUCAACCUCCAAUGCAUCCCACCACAUGAUGAUGGCUGAAGAGCGUUGGUUUUUUG [G77U C114G C124G] stands -1.15. Turning to GACCAAUCUGCCCUCAGAGCUCGAGAACAUCUUCGGAUGCAGAGGAGGCAGUCUUCGGUGGCUCGAUAGCGCCAACGUCCUCAACCUCCAAUGCAUCCCACCACAUGAUGAUGCCUGAGUUGCCUUGGUUUUUUG [G52U G63U A119G G120U A121U], the “polymerase ribozyme fitness (log ratio)” value was -0.023. As to GACCAAUCUGCCCUCAGAGCUCGAGAACAUCUUCGGAUGCAGAGGAGGCAUGCUUCGGUGGCGCGAUCGCGCCAACGUCCUCAACCUCCACUGCAUCCCACCACAUGAUCAUGCCUGAAGAGCCUUGGUUUUUUG [G51U A68C A91C G110C], the “polymerase ribozyme fitness (log ratio)” value was -7.47.

With GACCAAUCUGCCCUCAGAGCUCGAGAACAUCUUCGGAUGCAGAGGAGGCAGGCUUCGGUGGUGCGAUAGCGCCAACGUCCUCAACCUCCAAUGCAUCCCACCACAUGAUGAUGCCUGAAGCGCCUUGGUUUUUUG [C62U A121C], the “polymerase ribozyme fitness (log ratio)” value amounted to 1.11. Under GACCAAUCUGCCCUCAGAGCUCGAGAGCAUCUUCGGAUGCAGAGGAGGCAGGCUUCGGUGGAGCGAUAGCGCCAACGUCCUCAACCUCCAAUGCAUCCCACCACAUGAUGAUGCCUGAAGAGCCUUGGUUUUUUG [A27G C62A] stands -2.85; under GACCAAUCUGCCCUCAGAGCUCGAGAACAUCCUCGGAUGCAGAGGAGGCAGGCUUCGGUGGCGCGAUAGCGCCAACGUCCUCAACCUCCAAUUCAUCCCACCACAUGAUGAUGCCUGAAGAGCCUUGGUUUUUUG [U32C G93U], -0.79; under GACCAAUCUGCCCUCAGAGCUCGAGAACAUCUUCGGAUGCAGAGGAGGCAGGCUUCGGUGGUGCGAUAGCGCCUACGUCCUCAACCUCCAAUGCAUCCCACCACAUGAUGAUGCCUGAAGAGCCUUGCUUUUUUG [C62U A74U G128C], -3. Under GACCAAUCUGCCCUCAGAGCUCGAGAACAUCUUCGGAUGCAGAGGAGGCAGGCUUCGGUGGCGCGGUAGCGCCAACGUCCUCAACCUCCAAUGCAUCCCACCACAUGAUGAUGCCUGAAGAGCGUUGAUUUUUUG [A66G C124G G128A] stands -1.05.
